B1: Lambda phosphatase: Lambda protein phosphatase purchased from NE BioLabs (protein)
chain: MRYYEKIDGSKYRNIWVVGDLHGCYTNLMNKLDTIGFDNKKDLLISVGDLVDRGAENVECLELITFPWFRAVRGNHEQMMIDGLSERGNVNHWLLNGGGWFFNLDYDKEILAKALAHKADELPLIIELVSKDKKYVICHADYPFDEYEFGKPVDHQQVIWNRERISNSQNGIVKEIKGADTFIFGHTPAVKPLKFANQMYIDTGAVFCGNLTLIQVQGEGA
B2: caspase-3: Recombinant human Caspase-3 purchased from Alexis Biochemicals (protein)
chain: SGISLDNSYKMDYPEMGLCIIINNKNFHKSTGMTSRSGTDVDAANLRETFRNLKYEVRNKNDLTREEIVELMRDVSKEDHSKRSSFVCVLLSHGEEGIIFGTNGPVDLKKITNFFRGDRCRSLTGKPKLFIIQACRGTELDCGIETDSGVDDDMACHKIPVEADFLYAYSTAPGYYSWRNSKDGSWFIQSLCAMLKQYADKLEFMHILTRVNRKVATEFESFSFDATFHAKKQIPCIVSMLTKELYFYH

How the values were obtained:
[1] = system: p33^QIK; test: Phosphatase treatment of immunoprecipitated p33^QIK, in-gel kinase readout; format: biochemical, mouse; details: immune complexes from quiescent or osmotic-stressed quiescent cells; 0.1 unit PP1, 30° C., 30 min
Protocol: NIH3T3 cultures were synchronized in quiescent state by serum starvation for 48 hr (G0), followed by treatment with 300 mM NaCl (G0/NaCl) for 2 hr. p33^QIK in 10 μg of cytosolic lysates (S20) were immunoprecipitated by Ab-KQ (IP), followed by incubation of the immune complexes with 0.1 unit of PP1 (Ps) (lanes 2, 3, 5 and 6) in phosphatase buffer (50 mM Tris-HCl, pH 7.0, 0.1 mM EDTA, 5 mM dithiothreitol, 0.01% Brij 35, 2 mM MnCl2) in the presence of 10 mM Na3VO4 and 50 mM NaF (Ps+I)(lanes 3 and 6) at 30° C. for 30 min. The kinase activity of p33^QIK in the immune complexes was determined by the in-gel kinase assay using MBP as a substrate. Bar indicates p33^QIK.
(§1) MBP (BRL/GIBCO, Grand Island, N.Y.) was used as a substrate in the assay and the in-gel kinase assay was performed as previously described (Wang et al., 1992). Briefly, 10% SDS-polyacrylamide gel (SDS-PAG) was copolymerized with 0.4 mg/ml MBP. Cellular proteins were resolved in the MBP-immobilized SDS-PAG, followed by rinsing the gel with 20% isopropanol in buffer B (100 mM Tris, pH 8, 5 mM β-mercaptoethanol). The gel was denatured in buffer B supplemented with 6 M guanidine-HCl and renatured with buffer B supplemented with 0.04% Tween 40 (Kameshita and Fujisawa, 1989). […] Protein kinases which phosphorylated MBP in the gel were detected by autoradiography of the [γ^32P]-labeled MBP. […]

[2] = system: p63^Krsl, p35, and p33^QIK; test: Caspase-3 treatment of Ab-KQ immune complexes, in-gel kinase readout; format: biochemical, mouse; details: 0.2 μg Caspase-3, 37° C., 30 min
Protocol: Both p63^Krsl and p33^QIK in 10 μg of cytosolic lysates (S20) were immunoprecipitated by Ab-KQ (lanes 2 to 4 and 6 to 8), followed by reatment with 0.2 μg Caspase-3 (C)(lanes 3, 4, 7 and 8) in the presence of 5 μM caspase inhibitor Z-D-CH2-DCB (C+I)(lanes 4 and 8) at 37° C. for 30 min. The kinase activities of p63^Krsl, p35, and p33^QIK in 5 μg of S20 (lanes 1 and 5) and in the immune complexes were determined by the in-gel kinase assay using MBP as a substrate. Bars indicate p63^Krsl p35, and p33^QIK.
as §1, with “1989). Kinase reaction was carried out by incubating the gel with kinase buffer (20 Mm Tris, pH 7.2, 10 mM MgCl2, 15 mM β-glycerolphosphate) supplemented with 50 μM γATP and 50 μCi of [γ-^32P]ATP at 22° C. for 30 min.” for “1989).”

| Molecule | kinase activity of activated p33^QIK after phosphatase treatment [1] | kinase activities of p63^Krsl, p35 and p33^QIK in immune complexes ([2]; immune complexes from STSP-treated cells) | kinase activity of p33^QIK in immune complexes ([2]; p33^QIK isolated from osmotic-stressed quiescent or growing cultures) |
| --- | --- | --- | --- |
| B1 | A similar result was obtained |  |  |
| B2 |  | both the kinase activities of p63^Krsl and p35 decreased in correlation with an increased p33^QIK activity | no change was detected in the kinase activity of p33^QIK |

Reference: patent US20030170252A1, “Antibody compositions specific for p33QIK and p63Krs1 polypeptides and uses thereof” (priority 2000, published 2003)
